Test results as given in patent US20140234868A1, “USE FOR GLYCOLIPOPROTEIN GINTONIN, ISOLATED AND IDENTIFIED FROM GINSENG, AS A NATURAL MEDICAL-PLANT DERIVED LIGAND” (KONKUK UNIVERSITY INDUSTRIAL COOPERATION CORP., priority 2011, published 2014).

Experiments:
[1] = biological target: T1, LPA3 receptor (Homo sapiens, UniProt Q9UBY5); experiment: Intracellular cAMP level in LPA3-expressing B103 cells; assay type: cell-based
T1 construct: host or cells: B103 rat neuroblastoma cells
T1 sequence (Q9UBY5 1-353): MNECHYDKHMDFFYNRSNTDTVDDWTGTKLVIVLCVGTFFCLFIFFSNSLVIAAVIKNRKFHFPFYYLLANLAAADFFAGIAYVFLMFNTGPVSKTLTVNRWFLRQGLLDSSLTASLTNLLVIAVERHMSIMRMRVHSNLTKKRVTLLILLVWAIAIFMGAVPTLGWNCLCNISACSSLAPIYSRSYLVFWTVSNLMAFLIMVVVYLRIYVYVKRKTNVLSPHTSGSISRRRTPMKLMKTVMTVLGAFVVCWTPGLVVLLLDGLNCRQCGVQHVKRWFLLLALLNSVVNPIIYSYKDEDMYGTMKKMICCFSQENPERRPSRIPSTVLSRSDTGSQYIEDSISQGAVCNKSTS
Source text: After treatment with gintonin, B103 cells expressing LPA3 or LPA6 receptor were examined for change in intracellular cAMP level.

[2] = system: mutant NMDA receptor (S1312A); experiment: Gintonin-induced activation of mutant NMDA receptor S1312A in oocytes; assay type: cell-based
Procedure: Two-electrode voltage-clamp recordings were obtained from individual oocytes placed in a small Plexiglas net chamber (5 ml). Electrophysiological experiments were performed using microelectrodes filled with 3 M KCl (resistance of 0.2-0.7 MΩ) and an Oocyte Clamp amplifier (OC-725C; Warner Instrument, Hamden, Conn.). For physiological recordings of NMDA receptor activity, oocytes were first perfused with Mg^2+-free ND96 (mM: 96 NaOH, 2 KOH, 0.3 CaCl2, 5 HEPES pH 7.6 with methanesulfonic acid). Then, the oocytes were clamped at −60 mV holding potential, followed by recoding NMDA currents (induced by administering […]) (Zheng et al., J Neurosci. 17, 8676-8686, 1997; Chang and Kuo, J Neurosci. 28, 1546-1556, 2008).
Thus, it is understood that gintonin stimulates PKC to phosphorylate the NMDA receptor at a specific site (S1308), and thus that gintonin-induced NMDA receptor activation is associated with PKC activity.

[3] = system: LPA receptor-null B103 cells (empty vector); experiment: Intracellular free Ca2+ (Fura-2AM) in B103 cells transfected with empty vector; assay type: cell-based, rat; details: gintonin 1 μg/ml; empty vector B103 cells
Source text: LPA family receptors are endogenous to cells of most organs. B103 rat neuroblastoma cells, known as LPA receptor-null cells (Valentine et al., Biochim Biophys Acta 1780. 597-605) were transiently transfected with a plasmid (vector) carrying one of genes coding for LPA1(edg-2), LPA2(edg-4), LPA3(edg-7), LPA4, LPA5 and LPA6 receptors or a plasmid carrying none of them (empty vector). Two or three days after transfection, the cells are suspended, and made permeable. Then, the permeable cells are treated with Fura-2AM, a fluorescent dye binding to calcium, and then with gintonin, followed by spectrofluorephotometry to examine whether gintonin induces an increase in intracellular free Ca^2+ level. […]
Briefly, Fura 2-AM loaded cells were diluted with an experimental medium to a final density of 2˜4×10^6 cells/mL, and transferred to polystyrene cuvettes (Elkay Ultra-VU). […] Emission was detected at 510 nm Excitation and emission slit widths were 5 nm Background calibration was performed as described by Jørgensen et al. […]

B1: gintonin: ginseng-derived glycolipoprotein; structural protein of ginseng major latex-like protein (MLP151) and ribonuclease-like storage proteins; crude gintonin used in tests (protein)
chain 1: MGLTGKLICQTGIKSDGDVFHELFGTRPHHVPNITPANIQGCDLHEGEFGKVGSVVIWNYSIDGNAMIAKEEIVAIDEEDKSVTFKVVEGHLFEEFKSIVFSVHVDTKGEDNLVTWSIDYEKLNESVKDPTSYLDFLLSVTRDIEAHHLPK
chain 2: RSDYPWAMFALRLQWPAGFCEVNNACDTKSLLNTFTIHGLYPYNAKGTPALYCDGTAFDVNSVSDFLAEMHLAWPSHETNTEDIQFWEHEWKKHGRCSEALLKQTDYFRTALAFRKAFDIVGLLNQEGIYPNNDLYRPKMIKEAIKKHLNAVPEIDFTKNENSEYVLTDINVCVNQQATRFVDCPTDDATDDYRLKFVRLPSKMKFADPRTNSII
In the case of B1, the “change in intracellular cAMP level” value [1] is reported as “no influences on intracellular cAMP level”, the “gintonin-induced NMDA receptor activation” value [2] is reported as “maintained gintonin-induced NMDA receptor activation” and the increase in intracellular calcium level [3] is reported as 22.7 ± 4.1 nM.
